Assay results taken from the supplement of paper PMC10126150.
± gives the standard deviation of the averaged measurements.

System: ATP
Assay: switch fluorescence ratio, 500 uM ATP over buffer (Cy3 cluster intensity, sum of 5 cycles each) (fold (ratio)); higher = stronger signal-on switching upon ATP binding; sequences stand for … in TCGTCGGCAGCGTCAGATGTGTATAAGAGACAGTTTTTTTTTTTTTTTTTTTTTTTTT…TC
Conditions: aptamer strand: ATP DNA aptamer (quencher-CACCTGGGGGAGTATTGCGGAGGAAGG + anchor), 100 nM annealed; ATP concentration: 500 uM
Outline: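 Between each of five buffer/ATP cycles, the flow-cell was stripped with NaOH and re-annealed. Each cycle imaged Cy3-labelled switching-strand clusters, annealed to 100 nM quencher-labelled ATP aptamer on a modified Illumina MiSeq flow-cell, first in selection buffer and then after 15 min with 500 uM ATP at 22 °C. The fluorescence ratio is summed target-cycle over summed buffer-cycle Cy3 intensity per cluster, averaged per switch-domain sequence, with clusters outside 100-1000 RFU excluded.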
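Further: ATP exposure 15 min at 22 °C before imaging.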

With AATTTGATAA as the sequence, how does the switch fluorescence ratio read?
The switch fluorescence ratio was 0.981 ± 0.011.

How did the switch fluorescence ratio turn out when AATTTGGTAA was run?
The switch fluorescence ratio was 0.999 ± 0.019.

AATTTGTAAG was tested. Which switch fluorescence ratio did it give?
Its switch fluorescence ratio is 1.01 ± 0.023.

How did the switch fluorescence ratio turn out when AATTTGTACC was run?
The switch fluorescence ratio was 0.989 ± 0.013.

Which switch fluorescence ratio does the source give for AATTTGTAGA here?
Its switch fluorescence ratio is 0.9996 ± 0.0047.

How did the switch fluorescence ratio turn out when AATTTTACGA was run?
Its switch fluorescence ratio is 1.04 ± 0.024.

AATTTTAGGT was tested. Which switch fluorescence ratio did it give?
Its switch fluorescence ratio is 0.959 ± 0.015.

AATTTTATCG was tested. Which switch fluorescence ratio did it give?
The switch fluorescence ratio was 0.9741 ± 0.0085.

How did the switch fluorescence ratio turn out when AATTTTATGT was run?
The switch fluorescence ratio was 1.01 ± 0.011.

With AATTTTGGGA as the sequence, how does the switch fluorescence ratio read?
Its switch fluorescence ratio is 0.994 ± 0.023.

How did the switch fluorescence ratio turn out when AATTTTGTTT was run?
Its switch fluorescence ratio is 0.991 ± 0.035.

With AATTTTTCTC as the sequence, how does the switch fluorescence ratio read?
The switch fluorescence ratio was 1.05 ± 0.1.

For AATTTTTCTT, which switch fluorescence ratio is on record?
Its switch fluorescence ratio is 0.98 ± 0.05.

For AATTTTTGAT, which switch fluorescence ratio is on record?
The switch fluorescence ratio was 0.979 ± 0.037.

With AATTTTTGCT as the sequence, how does the switch fluorescence ratio read?
Its switch fluorescence ratio is 0.966 ± 0.011.

How did the switch fluorescence ratio turn out when AATTTTTGGG was run?
The switch fluorescence ratio was 0.994 ± 0.03.

AATTTTTTAA was tested. Which switch fluorescence ratio did it give?
Its switch fluorescence ratio is 0.985 ± 0.019.

For AATTTTTTGT, which switch fluorescence ratio is on record?
The switch fluorescence ratio was 1.01 ± 0.033.

Which switch fluorescence ratio does the source give for ACAAAACATG here?
The switch fluorescence ratio was 1.16 ± 0.15.

For ACAAAACGTT, which switch fluorescence ratio is on record?
The switch fluorescence ratio was 1.028 ± 0.0078.

How did the switch fluorescence ratio turn out when ACAAAATGTT was run?
Its switch fluorescence ratio is 1.02 ± 0.019.

ACAAAGATGA was tested. Which switch fluorescence ratio did it give?
The switch fluorescence ratio was 0.973 ± 0.015.

With ACAACATCCT as the sequence, how does the switch fluorescence ratio read?
Its switch fluorescence ratio is 1.08 ± 0.044.

With ACAACGGAAG as the sequence, how does the switch fluorescence ratio read?
The switch fluorescence ratio was 1.03 ± 0.035.

How did the switch fluorescence ratio turn out when ACAACGGGGT was run?
The switch fluorescence ratio was 1.01 ± 0.046.

For ACAAGCGTTT, which switch fluorescence ratio is on record?
Its switch fluorescence ratio is 1.01 ± 0.036.

For ACAAGGCCTT, which switch fluorescence ratio is on record?
Its switch fluorescence ratio is 0.993 ± 0.031.

For ACAAGGGGCA, which switch fluorescence ratio is on record?
The switch fluorescence ratio was 1.01 ± 0.028.

How did the switch fluorescence ratio turn out when ACAAGGGGCT was run?
The switch fluorescence ratio was 1.02 ± 0.021.

With ACAAGGTGTT as the sequence, how does the switch fluorescence ratio read?
The switch fluorescence ratio was 1.2 ± 0.022.

ACAAGTTCAG was tested. Which switch fluorescence ratio did it give?
The switch fluorescence ratio was 0.993 ± 0.023.

For ACAATGAGTT, which switch fluorescence ratio is on record?
Its switch fluorescence ratio is 0.985 ± 0.015.

For ACAATGTCGG, which switch fluorescence ratio is on record?
The switch fluorescence ratio was 0.998 ± 0.011.

How did the switch fluorescence ratio turn out when ACAATGTGTG was run?
Its switch fluorescence ratio is 0.985 ± 0.038.

How did the switch fluorescence ratio turn out when ACACAAATGA was run?
Its switch fluorescence ratio is 1.01 ± 0.024.

Which switch fluorescence ratio does the source give for ACACATAGGG here?
Its switch fluorescence ratio is 0.9985 ± 0.0084.

Which switch fluorescence ratio does the source give for ACACCGGTTA here?
The switch fluorescence ratio was 1.01 ± 0.035.

How did the switch fluorescence ratio turn out when ACACCTAGGC was run?
The switch fluorescence ratio was 1.12 ± 0.054.

For ACACGATGGG, which switch fluorescence ratio is on record?
The switch fluorescence ratio was 1 ± 0.019.

With ACACGGGGAA as the sequence, how does the switch fluorescence ratio read?
The switch fluorescence ratio was 1.0184 ± 0.00046.

For ACACGGGTTA, which switch fluorescence ratio is on record?
Its switch fluorescence ratio is 1 ± 0.047.

For ACACGTACTT, which switch fluorescence ratio is on record?
The switch fluorescence ratio was 1.52 ± 0.065.

With ACACGTGGTT as the sequence, how does the switch fluorescence ratio read?
The switch fluorescence ratio was 1.04 ± 0.076.

Which switch fluorescence ratio does the source give for ACACGTTCTT here?
Its switch fluorescence ratio is 0.996 ± 0.019.

For ACACTAATCT, which switch fluorescence ratio is on record?
Its switch fluorescence ratio is 1.16 ± 0.15.

ACACTACGTC was tested. Which switch fluorescence ratio did it give?
The switch fluorescence ratio was 1.51 ± 0.056.

With ACACTCAGAG as the sequence, how does the switch fluorescence ratio read?
Its switch fluorescence ratio is 1.019 ± 0.004.

For ACACTGGCCC, which switch fluorescence ratio is on record?
Its switch fluorescence ratio is 0.964 ± 0.038.

With ACACTGGGCA as the sequence, how does the switch fluorescence ratio read?
The switch fluorescence ratio was 1.022 ± 0.0053.

How did the switch fluorescence ratio turn out when ACAGAAGGGT was run?
The switch fluorescence ratio was 0.972 ± 0.098.

For ACAGAAGGTC, which switch fluorescence ratio is on record?
The switch fluorescence ratio was 0.977 ± 0.015.

For ACAGACTCGG, which switch fluorescence ratio is on record?
The switch fluorescence ratio was 1.039 ± 0.0036.

For ACAGAGGGTG, which switch fluorescence ratio is on record?
The switch fluorescence ratio was 1.08 ± 0.095.

For ACAGAGGTTT, which switch fluorescence ratio is on record?
Its switch fluorescence ratio is 0.984 ± 0.035.

Which switch fluorescence ratio does the source give for ACAGATGAGC here?
The switch fluorescence ratio was 1.01 ± 0.056.

For ACAGATGGGA, which switch fluorescence ratio is on record?
Its switch fluorescence ratio is 1.04 ± 0.046.

ACAGCGCAAT was tested. Which switch fluorescence ratio did it give?
The switch fluorescence ratio was 2.12 ± 0.94.

For ACAGCGCGAC, which switch fluorescence ratio is on record?
The switch fluorescence ratio was 1.32 ± 0.017.

With ACAGCGCTTT as the sequence, how does the switch fluorescence ratio read?
Its switch fluorescence ratio is 1.03 ± 0.025.

With ACAGCGGGA as the sequence, how does the switch fluorescence ratio read?
The switch fluorescence ratio was 1.0254 ± 4.6e-06.

Which switch fluorescence ratio does the source give for ACAGCGTGTG here?
The switch fluorescence ratio was 1.03 ± 0.011.

Which switch fluorescence ratio does the source give for ACAGCTGCTT here?
Its switch fluorescence ratio is 0.981 ± 0.028.

For ACAGCTGTTT, which switch fluorescence ratio is on record?
The switch fluorescence ratio was 0.998 ± 0.027.

ACAGGAGAC was tested. Which switch fluorescence ratio did it give?
Its switch fluorescence ratio is 1.0379 ± 0.00024.

Which switch fluorescence ratio does the source give for ACAGGGAGTA here?
Its switch fluorescence ratio is 0.9864 ± 0.003.

Which switch fluorescence ratio does the source give for ACAGGGCGGG here?
Its switch fluorescence ratio is 1.01 ± 0.035.

ACAGGGCTAT was tested. Which switch fluorescence ratio did it give?
Its switch fluorescence ratio is 1.02 ± 0.014.

For ACAGGGGATG, which switch fluorescence ratio is on record?
The switch fluorescence ratio was 1.08 ± 0.16.

With ACAGGGGCAG as the sequence, how does the switch fluorescence ratio read?
The switch fluorescence ratio was 1.02 ± 0.017.

With ACAGGGGGAG as the sequence, how does the switch fluorescence ratio read?
The switch fluorescence ratio was 0.983 ± 0.024.

For ACAGGGGTCT, which switch fluorescence ratio is on record?
Its switch fluorescence ratio is 1.06 ± 0.024.

How did the switch fluorescence ratio turn out when ACAGGGTCG was run?
Its switch fluorescence ratio is 0.948 ± 0.025.

For ACAGGTTAAT, which switch fluorescence ratio is on record?
The switch fluorescence ratio was 1.02 ± 0.02.

Which switch fluorescence ratio does the source give for ACAGGTTAGT here?
Its switch fluorescence ratio is 0.989 ± 0.034.

How did the switch fluorescence ratio turn out when ACAGGTTGAA was run?
Its switch fluorescence ratio is 0.996 ± 0.036.

With ACAGGTTTTT as the sequence, how does the switch fluorescence ratio read?
The switch fluorescence ratio was 1.01 ± 0.023.

With ACAGTAACTT as the sequence, how does the switch fluorescence ratio read?
The switch fluorescence ratio was 1.092 ± 0.0098.

ACAGTAGGA was tested. Which switch fluorescence ratio did it give?
Its switch fluorescence ratio is 1.06 ± 0.013.

With ACAGTATCGG as the sequence, how does the switch fluorescence ratio read?
The switch fluorescence ratio was 1.06 ± 0.013.

For ACAGTATGGA, which switch fluorescence ratio is on record?
The switch fluorescence ratio was 1 ± 0.011.

With ACAGTATTCT as the sequence, how does the switch fluorescence ratio read?
The switch fluorescence ratio was 1.047 ± 0.01.

With ACAGTCGTAG as the sequence, how does the switch fluorescence ratio read?
Its switch fluorescence ratio is 1 ± 0.015.

ACAGTCTGTT was tested. Which switch fluorescence ratio did it give?
Its switch fluorescence ratio is 1.01 ± 0.048.

ACAGTGGGAA was tested. Which switch fluorescence ratio did it give?
The switch fluorescence ratio was 1.014 ± 0.0044.

ACAGTGGGAG was tested. Which switch fluorescence ratio did it give?
Its switch fluorescence ratio is 1.011 ± 0.003.

How did the switch fluorescence ratio turn out when ACAGTGGTCG was run?
The switch fluorescence ratio was 1.06 ± 0.033.

ACAGTGTGGT was tested. Which switch fluorescence ratio did it give?
The switch fluorescence ratio was 1.07 ± 0.031.

Which switch fluorescence ratio does the source give for ACAGTTGCTC here?
Its switch fluorescence ratio is 1.02 ± 0.02.

With ACATAACGAA as the sequence, how does the switch fluorescence ratio read?
The switch fluorescence ratio was 1.21 ± 0.013.

Which switch fluorescence ratio does the source give for ACATAATATT here?
The switch fluorescence ratio was 1.06 ± 0.036.

How did the switch fluorescence ratio turn out when ACATACTGCG was run?
Its switch fluorescence ratio is 1.323 ± 0.0038.

Which switch fluorescence ratio does the source give for ACATAGAACG here?
The switch fluorescence ratio was 1.06 ± 0.038.

How did the switch fluorescence ratio turn out when ACATAGCGAA was run?
The switch fluorescence ratio was 1.13 ± 0.026.

For ACATAGTAAT, which switch fluorescence ratio is on record?
The switch fluorescence ratio was 1.001 ± 0.0092.

Which switch fluorescence ratio does the source give for ACATAGTTTT here?
The switch fluorescence ratio was 0.9994 ± 0.0075.

ACATATCCGT was tested. Which switch fluorescence ratio did it give?
The switch fluorescence ratio was 1.01 ± 0.021.

With ACATCAAGGG as the sequence, how does the switch fluorescence ratio read?
Its switch fluorescence ratio is 1.06 ± 0.055.

How did the switch fluorescence ratio turn out when ACATCCCGTT was run?
The switch fluorescence ratio was 1.05 ± 0.048.

With ACATCGGCTT as the sequence, how does the switch fluorescence ratio read?
Its switch fluorescence ratio is 0.998 ± 0.015.

For ACATGAATTT, which switch fluorescence ratio is on record?
Its switch fluorescence ratio is 1 ± 0.029.
